Reference: patent US20230235040A1 (ALMIRALL S A, published 2023)

What was measured:
[1] = biological target: T1, hu-IL-36β (human IL-36β, N-terminally truncated active form R5-E157) (human); assay: cell-based or functional assay
T1 chain: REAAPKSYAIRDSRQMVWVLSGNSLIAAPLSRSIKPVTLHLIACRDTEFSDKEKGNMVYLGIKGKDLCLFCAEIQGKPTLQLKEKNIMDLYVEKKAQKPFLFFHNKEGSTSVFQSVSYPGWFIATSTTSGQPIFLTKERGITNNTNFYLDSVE

[2] = biological target: T2, hu-IL-36γ (human IL-36γ, N-terminally truncated active form S18-D169) (human, UniProt Q9NZH8 18-169); assay: cell-based or functional assay
T2 sequence: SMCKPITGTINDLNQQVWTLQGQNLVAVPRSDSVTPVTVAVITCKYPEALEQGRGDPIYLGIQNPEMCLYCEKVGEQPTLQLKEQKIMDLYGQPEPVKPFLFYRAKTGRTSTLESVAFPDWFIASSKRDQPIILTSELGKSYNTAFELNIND

[3] = biological target: T3, hu-IL-36α (human IL-36α, N-terminally truncated active form K6-F158) (human, UniProt Q9UHA7 6-158); assay: cell-based or functional assay
T3 sequence: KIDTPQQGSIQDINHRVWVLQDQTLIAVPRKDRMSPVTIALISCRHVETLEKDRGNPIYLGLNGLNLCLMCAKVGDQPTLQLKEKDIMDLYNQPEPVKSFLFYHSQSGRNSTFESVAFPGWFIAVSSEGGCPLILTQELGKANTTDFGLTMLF

[4] = biological target: T4, hu-IL-36α-Avi (in-vivo biotinylated) (human, site-specifically biotinylated in vivo on the C-terminal AviTag (BirA)); assay: SPR (Biacore 8K), in-vivo biotinylated IL-36-Avi captured on CAP chip, bispecific IgG injected, 37°C
T4 construct: also called biotinylated human IL-36α-Avi
T4 chain: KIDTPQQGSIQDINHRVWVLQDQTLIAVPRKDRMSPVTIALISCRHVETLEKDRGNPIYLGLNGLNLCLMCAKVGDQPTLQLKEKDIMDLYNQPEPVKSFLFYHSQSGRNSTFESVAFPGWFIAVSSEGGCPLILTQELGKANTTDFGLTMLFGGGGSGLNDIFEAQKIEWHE
Method: (§1) Surface plasmon resonance (SPR) analysis was used to determine the binding affinity for human and cynomolgus monkey IL-36 (“hu-IL-36” and “cy-IL-36,” respectively) using a BIACORE™ 8K instrument as described in Example 2. […] Briefly, a 1:4 dilution of Biotin CAPture Reagent (GE Healthcare) into HBS-EP buffer (0.01 M HEPES pH 7.4, 0.15 M NaCl, 3 mM EDTA, 0.005% Surfactant P20) was applied to a CAP sensor chip at 2 μL/min flow rate. For kinetics measurements, 1 nM biotinylated human and cyno IL-36α-Avi, IL-36γ-Avi; 0.8 nM biotinylated human and cyno IL-36β-Avi were captured at 10 μL/min to achieve 15-25 response units in the second flow cell (FC2). FC1 was kept as a reference. […] The sensorgram was recorded and subject to reference and buffer subtraction before data analysis with the BIACORE® 8K Evaluation Software (version 1.1.1.7442). […] Association rates (kₒₙ) and dissociation rates (koff) were calculated using a simple one-to-one Langmuir binding model. The equilibrium dissociation constant (KD) was calculated as the ratio of koff/kₒₙ.

[5] = biological target: T5, hu-IL-36γ-Avi (in-vivo biotinylated) (human, site-specifically biotinylated in vivo on the C-terminal AviTag (BirA)); assay: as above
T5 construct: also called biotinylated human IL-36γ-Avi
T5 chain: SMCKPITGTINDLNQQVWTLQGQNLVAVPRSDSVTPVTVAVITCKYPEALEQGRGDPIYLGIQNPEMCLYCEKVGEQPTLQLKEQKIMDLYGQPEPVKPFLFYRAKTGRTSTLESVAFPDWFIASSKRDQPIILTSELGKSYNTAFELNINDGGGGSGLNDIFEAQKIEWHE
Method: as §1

[6] = biological target: T6, cy-IL-36α-Avi (in-vivo biotinylated) (cynomolgus monkey, limits assumed, site-specifically biotinylated in vivo on the C-terminal AviTag (BirA)); assay: as above
T6 construct: also called biotinylated cyno IL-36α-Avi
T6 chain: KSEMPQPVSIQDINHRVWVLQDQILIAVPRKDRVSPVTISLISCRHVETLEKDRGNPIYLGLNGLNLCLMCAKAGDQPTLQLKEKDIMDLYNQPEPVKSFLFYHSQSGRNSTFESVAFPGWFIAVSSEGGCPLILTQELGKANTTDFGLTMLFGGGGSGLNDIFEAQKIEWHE
Method: as §1

[7] = biological target: T7, hu-IL-36β-Avi (in-vivo biotinylated) (human, site-specifically biotinylated in vivo on the C-terminal AviTag (BirA)); assay: as above
T7 construct: also called biotinylated human IL-36β-Avi
T7 chain: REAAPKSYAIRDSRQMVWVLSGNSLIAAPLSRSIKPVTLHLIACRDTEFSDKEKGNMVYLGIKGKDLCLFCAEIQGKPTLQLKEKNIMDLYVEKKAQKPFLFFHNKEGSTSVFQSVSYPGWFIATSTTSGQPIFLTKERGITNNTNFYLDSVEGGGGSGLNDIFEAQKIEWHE
Method: as §1

B1: mAb2.10/mAb6_2.7 multispecific common light chain antibody (IgG, knobs-into-holes, N297G) (bispecific antibody)
heavy 1: not shown
heavy 2: not shown
light: ESVLTQPPSVSGAPGQRVTISCTGSSSNIGAHYDVHWYQQLPGTAPKLLIYGNDNRPSGVPDRFSGSKSGTSASLAITGLQAEDEADYYCQSYDYSLSGYVFGGGTKLTVLGQPKAAPSVTLFPPSSEELQANKATLVCLISDFYPGAVTVAWKADSSPVKAGVETTTPSKQSNNKYAASSYLSLTPEQWKSHKSYSCQVTHEGSTVEKTVAPTECS
notes: tags removed; also called mAb2.10/mAb6_2.7 IgG; anti-IL-36 multispecific antibody
[1]
  % inhibition of IL-8 production in HEKa cells at 8 nM antibody: 100%
  % inhibition of IL-8 production in HaCat cells at 8 nM antibody: 100%
  IC50, IL-36-mediated IL-8 production in HaCat cells: ~0.13 nM
  IC50, IL-36-mediated IL-8 production in primary human adult keratinocytes (HEKa): ~0.11 nM
[2]
  % inhibition of IL-8 production in HEKa cells at 8 nM antibody: 100%
  % inhibition of IL-8 production in HaCat cells at 8 nM antibody: 100%
  IC50, IL-36-mediated IL-8 production in HaCat cells: ~1.1 nM
  IC50, IL-36-mediated IL-8 production in primary human adult keratinocytes (HEKa): ~2.7 nM
[3]
  % inhibition of IL-8 production in HEKa cells at 8 nM antibody: 100%
  % inhibition of IL-8 production in HaCat cells at 8 nM antibody: 100%
  IC50, IL-36-mediated IL-8 production in HaCat cells: ~0.38 nM
  IC50, IL-36-mediated IL-8 production in primary human adult keratinocytes (HEKa): ~0.56 nM
[4]
  Kd: 1.95 nM
  koff: 0.000434 s⁻¹
  kon: 223000 M⁻¹ s⁻¹
[5]
  Kd: 1.63 nM
  koff: 0.000341 s⁻¹
  kon: 210000 M⁻¹ s⁻¹
[6]
  Kd: 2.57 nM
  koff: 0.000625 s⁻¹
  kon: 243000 M⁻¹ s⁻¹
[7]
  Kd: 1.84 nM
  koff: 0.000168 s⁻¹
  kon: 91400 M⁻¹ s⁻¹
